First the molecules themselves.
B1: NRC3_wobSeed58_DR2_G14A_o1 (dsDNA)
DNA 1: GCATCGAAAGGTCATGAGGTGAGTATACAGAAAGGCGCGATTGACAGCGTAGAATGAAGG
DNA 2: CCTTCATTCTACGCTGTCAATCGCGCCTTTCTGTATACTCACCTCATGACCTTTCGATGC
B2: NRC3_wobSeed53_DR2_T21C_o1 (dsDNA)
DNA 1: GCCCTTACGGGTCACGAGGTCATAGCACGACGAGCGGCGATTGACAGCGTAGAATGAAGG
DNA 2: CCTTCATTCTACGCTGTCAATCGCCGCTCGTCGTGCTATGACCTCGTGACCCGTAAGGGC
B3: NRC3_wobSeed18_DR0_A8G_o1 (dsDNA)
DNA 1: GCGATACGGGGTCAAGGCCAGAGTACGCGTATTGATGCGATTGACAGCGTAGAATGAAGG
DNA 2: CCTTCATTCTACGCTGTCAATCGCATCAATACGCGTACTCTGGCCTTGACCCCGTATCGC
B4: NRC3_wobSeed29_DR1_C8A_o1 (dsDNA)
DNA 1: GCGCTTAAGGGTCAAAGGTTATAGCATGAATAGAATGCGATTGACAGCGTAGAATGAAGG
DNA 2: CCTTCATTCTACGCTGTCAATCGCATTCTATTCATGCTATAACCTTTGACCCTTAAGCGC
B5: NRC3_wobSeed124_DR5_C12T_o1 (dsDNA)
DNA 1: GCCCTACTGGGTCATTCAGAGGTCATTGATCATATGGCGATTGACAGCGTAGAATGAAGG
DNA 2: CCTTCATTCTACGCTGTCAATCGCCATATGATCAATGACCTCTGAATGACCCAGTAGGGC
B6: NRC3_wobSeed26_DR1_A23G_o1 (dsDNA)
DNA 1: GCTCTAGTTGGTCAAAGGTCACGCACTCGAAATGCGGCGATTGACAGCGTAGAATGAAGG
DNA 2: CCTTCATTCTACGCTGTCAATCGCCGCATTTCGAGTGCGTGACCTTTGACCAACTAGAGC
B7: NRC3_random_hg19_391_o1 (dsDNA)
DNA 1: GCTAGATATGAGTCTGGCTTGCTGCTATCTACTTCAGCGATTGACAGCGTAGAATGAAGG
DNA 2: CCTTCATTCTACGCTGTCAATCGCTGAAGTAGATAGCAGCAAGCCAGACTCATATCTAGC
B8: NRC3_wobSeed41_DR1_A15G_o1 (dsDNA)
DNA 1: GCATATGTAGGTTAGGGGTCATTCAGGTTGGTTCGCGCGATTGACAGCGTAGAATGAAGG
DNA 2: CCTTCATTCTACGCTGTCAATCGCGCGAACCAACCTGAATGACCCCTAACCTACATATGC
B9: NRC3_wobSeed99_DR4_T22G_o1 (dsDNA)
DNA 1: GCTCTCGGAGGACACGAAAGGGCAGAGCTCGACATCGCGATTGACAGCGTAGAATGAAGG
DNA 2: CCTTCATTCTACGCTGTCAATCGCGATGTCGAGCTCTGCCCTTTCGTGTCCTCCGAGAGC
B10: NRC3_wobSeed72_DR2_C25G_o1 (dsDNA)
DNA 1: GCTCGAGTAGGTTACGGGGGCATTGAGGGATGAAGAGCGATTGACAGCGTAGAATGAAGG
DNA 2: CCTTCATTCTACGCTGTCAATCGCTCTTCATCCCTCAATGCCCCCGTAACCTACTCGAGC
B11: NRC3_random_hg19_58_o1 (dsDNA)
DNA 1: GCAAGACTCCTGGCTCTGATTCTAAACTAAACATAGGCGATTGACAGCGTAGAATGAAGG
DNA 2: CCTTCATTCTACGCTGTCAATCGCCTATGTTTAGTTTAGAATCAGAGCCAGGAGTCTTGC
B12: NRC3_random_hg19_33_o1 (dsDNA)
DNA 1: GCATCTGCATAGAGCTAGAGCTATTGATTCAAAGAGGCGATTGACAGCGTAGAATGAAGG
DNA 2: CCTTCATTCTACGCTGTCAATCGCCTCTTTGAATCAATAGCTCTAGCTCTATGCAGATGC
B13: NRC3_wobSeed89_DR3_G16A_o1 (dsDNA)
DNA 1: GCCTATGTAGGTTAAAGGGGTCATTCAGTTTGAAAGGCGATTGACAGCGTAGAATGAAGG
DNA 2: CCTTCATTCTACGCTGTCAATCGCCTTTCAAACTGAATGACCCCTTTAACCTACATAGGC
B14: NRC3_random_hg19_186_o1 (dsDNA)
DNA 1: GCTTTCGTTACTGTAGCCTTGTAGTATAGTTTGAAGGCGATTGACAGCGTAGAATGAAGG
DNA 2: CCTTCATTCTACGCTGTCAATCGCCTTCAAACTATACTACAAGGCTACAGTAACGAAAGC
B15: NRC3_random_hg19_64_o1 (dsDNA)
DNA 1: GCAATCCAATTGGAGGTGCACTCGTCTAAGTGGTCCGCGATTGACAGCGTAGAATGAAGG
DNA 2: CCTTCATTCTACGCTGTCAATCGCGGACCACTTAGACGAGTGCACCTCCAATTGGATTGC
B16: NRC3_wobSeed85_DR3_G15T_o1 (dsDNA)
DNA 1: GCCGTCCAAGGTCATAGAGGTCAGTGAATGCCGAGTGCGATTGACAGCGTAGAATGAAGG
DNA 2: CCTTCATTCTACGCTGTCAATCGCACTCGGCATTCACTGACCTCTATGACCTTGGACGGC
B17: NRC3_random_hg19_341_o1 (dsDNA)
DNA 1: GCCCCAGATGACGGGTTGATATGGGCAGCAAACCGCGCGATTGACAGCGTAGAATGAAGG
DNA 2: CCTTCATTCTACGCTGTCAATCGCGCGGTTTGCTGCCCATATCAACCCGTCATCTGGGGC

Drawing on PMC6555819, “Comprehensive study of nuclear receptor DNA binding provides a revised framework for understanding receptor specificity”, this text covers binding signal for 17 molecules.

RARb:RXRa, sequence (P10826 whole entry, chain 1 of 2): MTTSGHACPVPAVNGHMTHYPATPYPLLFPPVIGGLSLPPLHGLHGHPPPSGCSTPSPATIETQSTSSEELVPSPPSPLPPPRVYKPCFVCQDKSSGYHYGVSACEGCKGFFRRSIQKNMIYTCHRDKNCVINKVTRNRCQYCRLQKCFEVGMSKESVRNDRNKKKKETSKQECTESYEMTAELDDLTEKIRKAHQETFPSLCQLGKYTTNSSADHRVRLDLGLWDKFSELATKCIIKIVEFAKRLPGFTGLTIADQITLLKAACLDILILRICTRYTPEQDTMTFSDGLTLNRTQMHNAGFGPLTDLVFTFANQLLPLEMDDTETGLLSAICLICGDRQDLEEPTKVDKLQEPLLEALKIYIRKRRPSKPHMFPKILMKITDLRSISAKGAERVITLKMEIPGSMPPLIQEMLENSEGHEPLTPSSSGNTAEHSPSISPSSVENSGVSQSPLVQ
RARb:RXRa, sequence (P19793 whole entry, chain 2 of 2): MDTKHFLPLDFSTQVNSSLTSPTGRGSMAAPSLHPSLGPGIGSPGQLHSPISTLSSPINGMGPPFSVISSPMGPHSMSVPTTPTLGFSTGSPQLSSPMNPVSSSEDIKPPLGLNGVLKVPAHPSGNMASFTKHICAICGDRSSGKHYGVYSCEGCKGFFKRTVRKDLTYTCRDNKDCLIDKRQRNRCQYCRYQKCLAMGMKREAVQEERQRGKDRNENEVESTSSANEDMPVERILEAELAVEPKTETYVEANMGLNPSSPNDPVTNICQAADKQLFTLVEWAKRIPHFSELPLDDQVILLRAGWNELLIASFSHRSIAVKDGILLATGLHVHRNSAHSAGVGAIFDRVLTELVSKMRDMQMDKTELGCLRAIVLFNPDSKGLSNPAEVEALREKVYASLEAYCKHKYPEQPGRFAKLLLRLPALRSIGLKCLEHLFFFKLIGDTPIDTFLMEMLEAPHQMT
RARa:RXRa, sequence (P10276 whole entry, chain 1 of 2): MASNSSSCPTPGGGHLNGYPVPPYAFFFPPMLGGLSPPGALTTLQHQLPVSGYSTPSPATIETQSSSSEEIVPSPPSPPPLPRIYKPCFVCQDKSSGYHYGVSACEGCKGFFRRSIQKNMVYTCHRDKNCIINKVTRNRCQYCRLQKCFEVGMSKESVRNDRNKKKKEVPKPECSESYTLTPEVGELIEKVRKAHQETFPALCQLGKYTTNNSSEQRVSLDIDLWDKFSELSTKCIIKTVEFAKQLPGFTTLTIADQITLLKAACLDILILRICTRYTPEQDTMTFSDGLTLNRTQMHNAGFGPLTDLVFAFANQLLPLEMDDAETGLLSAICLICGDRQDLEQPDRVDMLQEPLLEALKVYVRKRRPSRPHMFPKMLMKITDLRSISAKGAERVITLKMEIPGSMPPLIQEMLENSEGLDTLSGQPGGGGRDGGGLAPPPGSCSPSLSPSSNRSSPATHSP
RARa:RXRa, sequence (P19793 whole entry, chain 2 of 2): as the sequence (P19793 whole entry, chain 2 of 2) above

One series concerns the target PPARa:RXRa (Homo sapiens, UniProt Q07869;P19793 full;full). As to the kind of experiment: no ligand; PBM; 270 nM : 90 nM RXRa; PBS pH 7.4, 2% milk, 0.02% Triton X-100, 1 mM DTT, BSA, 0.4 mg/ml salmon testes DNA. Conditions: tags: GST kept;His cleaved; copies: 1;1; label: surface-attached array probe. In short, it runs like this:
(§1)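 The probes on custom Agilent 4×180K protein-binding microarrays were double-stranded, with 34-nt variable regions bearing direct-repeat seeds, single-nucleotide variants, half-site ablations and random human genomic background sequences. Incubation lasted 1 h with ligand-free nuclear receptor dimers in PBS pH 7.4, 2% milk, 0.02% Triton X-100, 1 mM DTT, 0.2 mg/mL BSA and 0.4 mg/ml salmon testes DNA. Antibodies against each partner (one per run) detected bound dimers, and fluorescence scans were regression-normalized. Binding z-scores take the random background probes as reference.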
On to B1, for which the binding signal was 6.95 PBM z-score against 500 random probes.
On the same count and under the same terms, under B2 stands 6.48 PBM z-score against 500 random probes; under B3, 6.56 PBM z-score against 500 random probes.

A further series has as its target RARg:RXRa (Homo sapiens, UniProt P13631;P19793 full;full). Described as above. Conditions: tags: His kept;His cleaved; copies: 1;1; label: surface-attached array probe. Summed up: as §1
Take B4: the binding signal was 7.9 PBM z-score against 500 random probes.
Still for that read-out and setting: the value for B5 was 8.13 PBM z-score against 500 random probes; that for B1 was 7.79 PBM z-score against 500 random probes; that for B2 was 7.59 PBM z-score against 500 random probes.
Same read-out and setting: under B6 stands 7.77 PBM z-score against 500 random probes.

In another series the target is LXRb:RXRa (Homo sapiens, UniProt P55055;P19793 full;full). The series is described as above. The following applies: tags: His kept;His cleaved; copies: 1;1; label: surface-attached array probe. Summed up: as §1
LXRb:RXRa, sequence (P55055 whole entry, chain 1 of 2): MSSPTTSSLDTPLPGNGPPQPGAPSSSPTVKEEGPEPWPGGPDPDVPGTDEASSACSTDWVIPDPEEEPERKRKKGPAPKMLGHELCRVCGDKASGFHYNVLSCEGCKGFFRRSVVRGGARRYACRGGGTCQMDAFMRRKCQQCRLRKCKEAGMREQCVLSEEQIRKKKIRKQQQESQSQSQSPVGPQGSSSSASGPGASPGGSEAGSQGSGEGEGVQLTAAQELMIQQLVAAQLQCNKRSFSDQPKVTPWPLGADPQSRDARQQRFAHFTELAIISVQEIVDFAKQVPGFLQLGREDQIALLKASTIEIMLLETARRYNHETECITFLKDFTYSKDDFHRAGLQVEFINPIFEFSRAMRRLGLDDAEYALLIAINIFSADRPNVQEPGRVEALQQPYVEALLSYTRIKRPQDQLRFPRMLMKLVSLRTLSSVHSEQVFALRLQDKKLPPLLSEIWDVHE
LXRb:RXRa, sequence (P19793 whole entry, chain 2 of 2): as the sequence (P19793 whole entry, chain 2 of 2) above
Consider B7, for which the binding signal is -0.73 PBM z-score against 500 random probes.
As for B4, the binding signal is 6.56 PBM z-score against 500 random probes.
On the same count and under the same terms, under B1 stands 5.92 PBM z-score against 500 random probes; under B8, 5.79 PBM z-score against 500 random probes.
Same read-out and setting: under B6 stands 6.1 PBM z-score against 500 random probes; under B3, 5.96 PBM z-score against 500 random probes.

Another series addresses RARa:RXRa (Homo sapiens, UniProt P10276;P19793 full;full). Described as above. Conditions: tags: His kept;His cleaved; copies: 1;1; label: surface-attached array probe. Summed up: as §1
In the case of B9, the binding signal is 0.47 PBM z-score against 500 random probes.
Same read-out and setting: the value for B10 was 3.03 PBM z-score against 500 random probes.
Still for that read-out and setting: under B11 stands -0.89 PBM z-score against 500 random probes; under B7, -0.46 PBM z-score against 500 random probes; under B4, 9.1 PBM z-score against 500 random probes.
Same read-out and setting: the value for B12 was -1.05 PBM z-score against 500 random probes; that for B5 was 7.55 PBM z-score against 500 random probes.
Regarding B13, the binding signal is 7.03 PBM z-score against 500 random probes.
Consider B14, for which the binding signal was 0.29 PBM z-score against 500 random probes.
As for B1, the binding signal is 7.09 PBM z-score against 500 random probes.
Same read-out and setting: the value for B15 was -0.24 PBM z-score against 500 random probes; that for B16 was 7.13 PBM z-score against 500 random probes.
Same read-out and setting: under B8 stands 7.24 PBM z-score against 500 random probes; under B2, 8.05 PBM z-score against 500 random probes.
Turning to B17, the binding signal is -0.22 PBM z-score against 500 random probes.
Still for that read-out and setting: under B6 stands 8.13 PBM z-score against 500 random probes; under B3, 7.56 PBM z-score against 500 random probes.

A further series concerns the target FXR:RXRa (Homo sapiens, UniProt Q96RI1;P19793 full;full). The series is described as above. The following applies: tags: His kept;His cleaved; copies: 1;1; label: surface-attached array probe. In short, it runs like this:
as §1
With B4, the binding signal is 8.78 PBM z-score against 500 random probes.
Same read-out and setting: the value for B1 was 8.53 PBM z-score against 500 random probes; that for B16 was 7.72 PBM z-score against 500 random probes.
The same measure, in the same setting: under B2 stands 8.01 PBM z-score against 500 random probes; under B3, 8.08 PBM z-score against 500 random probes.

Another series concerns the target LXRa:RXRa (Homo sapiens, UniProt Q13133;P19793 full;full). The series is described as above. The following applies: tags: His kept;His cleaved; copies: 1;1; label: surface-attached array probe. Summed up:
as §1
B1: the binding signal was 6.98 PBM z-score against 500 random probes.

In a further series the target is VDR:RXRa (Homo sapiens, UniProt P11473;P19793 full;full). Described as above. The following applies: tags: His kept;His cleaved; copies: 1;1; label: surface-attached array probe. Summed up: as §1
VDR:RXRa, sequence (P11473 whole entry, chain 1 of 2): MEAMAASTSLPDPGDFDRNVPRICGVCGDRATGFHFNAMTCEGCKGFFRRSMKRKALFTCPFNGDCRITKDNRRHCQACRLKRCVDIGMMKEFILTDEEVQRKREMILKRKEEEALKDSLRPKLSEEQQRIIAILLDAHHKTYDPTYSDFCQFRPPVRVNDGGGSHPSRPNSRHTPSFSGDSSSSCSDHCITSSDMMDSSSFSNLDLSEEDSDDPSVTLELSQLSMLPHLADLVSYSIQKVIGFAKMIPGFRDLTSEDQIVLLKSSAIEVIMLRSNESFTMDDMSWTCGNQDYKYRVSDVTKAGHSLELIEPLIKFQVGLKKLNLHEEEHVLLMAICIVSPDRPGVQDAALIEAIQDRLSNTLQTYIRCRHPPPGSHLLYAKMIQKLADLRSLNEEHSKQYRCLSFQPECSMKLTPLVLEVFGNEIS
VDR:RXRa, sequence (P19793 whole entry, chain 2 of 2): as the sequence (P19793 whole entry, chain 2 of 2) above
Consider B13, for which the binding signal was 8.06 PBM z-score against 500 random probes.
The same measure, in the same setting: under B16 stands 7.93 PBM z-score against 500 random probes.
The same measure, in the same setting: under B8 stands 6.69 PBM z-score against 500 random probes.
Still for that read-out and setting: under B2 stands 6.6 PBM z-score against 500 random probes.

The target of the next series is RARb:RXRa (Homo sapiens, UniProt P10826;P19793 full;full). The description is as above. Conditions: tags: His kept;His cleaved; copies: 1;1; label: surface-attached array probe. In short, it runs like this:
as §1
In the case of B4, the binding signal is 5.58 PBM z-score against 500 random probes.
With B12, the binding signal was -1.35 PBM z-score against 500 random probes.
Regarding B1, the binding signal was 6.03 PBM z-score against 500 random probes.
On the same count and under the same terms, under B6 stands 5.6 PBM z-score against 500 random probes.

The target in a further series is PXR:RXRa (Homo sapiens, UniProt O75469;P19793 full;full). The series is described as above. Conditions: tags: His kept;His cleaved; copies: 1;1; label: surface-attached array probe. Summed up:
as §1
Turning to B9, the binding signal is 0.23 PBM z-score against 500 random probes.
On to B10, for which the binding signal was 3.09 PBM z-score against 500 random probes.
On the same count and under the same terms, the value for B11 was -0.84 PBM z-score against 500 random probes; that for B7 was -0.47 PBM z-score against 500 random probes; that for B4 was 6.86 PBM z-score against 500 random probes.
Same read-out and setting: the value for B12 was -1.09 PBM z-score against 500 random probes; that for B5 was 6.43 PBM z-score against 500 random probes.
On the same count and under the same terms, the value for B13 was 6.77 PBM z-score against 500 random probes; that for B14 was 0.22 PBM z-score against 500 random probes; that for B15 was -0.06 PBM z-score against 500 random probes.
For the molecule B16, the binding signal is 6.83 PBM z-score against 500 random probes.
The same measure, in the same setting: under B8 stands 6.45 PBM z-score against 500 random probes; under B2, 6.58 PBM z-score against 500 random probes.
As to B17, the binding signal was -0.3 PBM z-score against 500 random probes.
On to B6, for which the binding signal was 6.52 PBM z-score against 500 random probes.
Still for that read-out and setting: under B3 stands 6.46 PBM z-score against 500 random probes.

The target of another series is RXRa (Homo sapiens, UniProt P19793). The series can be described thus: no ligand; PBM; 180 nM; PBS pH 7.4, 2% milk, 0.02% Triton X-100, 1 mM DTT, BSA, 0.4 mg/ml salmon testes DNA. Conditions: tags: His cleaved; chain copies: 2; label: surface-attached array probe.
RXRa, sequence (P19793 whole entry): as the sequence (P19793 whole entry, chain 2 of 2) above
Take B1: the binding signal was 8.9 PBM z-score against 500 random probes.
Same read-out and setting: under B2 stands 8.57 PBM z-score against 500 random probes.
Same read-out and setting: under B3 stands 8.69 PBM z-score against 500 random probes.
